From patent US20220119792

Assays:
[1] = molecular target: AH6-DEVD-hGH expressed from pAPT-Y-AH6-DEVD-hGH-Lacuv5-rev-CASP3
[2] = molecular target: DH6-DEVD-hGH expressed from pAPT-Y-DH6-DEVD-hGH-Lacuv5-rev-CASP3
[3] = molecular target: H6-DEVD-hGH expressed from pAPT-Y-H6-DEVD-hGH-Lacuv5-rev-CASP3
[4] = molecular target: H6-DEVD-hGH expressed from pETDuet-H6-DEVD-hGH-T7-rev-CASP3
[5] = molecular target: HAK-DEVD-hGH expressed from pAPT-Y-HAK-DEVD-hGH-Lacuv5-rev-CASP3
[6] = molecular target: KH6-DEVD-hGH expressed from pAPT-Y-KH6-DEVD-hGH-Lacuv5-rev-CASP3
Chain of KH6-DEVD-hGH expressed from pAPT-Y-KH6-DEVD-hGH-Lacuv5-rev-CASP3 (chain, as listed by the source): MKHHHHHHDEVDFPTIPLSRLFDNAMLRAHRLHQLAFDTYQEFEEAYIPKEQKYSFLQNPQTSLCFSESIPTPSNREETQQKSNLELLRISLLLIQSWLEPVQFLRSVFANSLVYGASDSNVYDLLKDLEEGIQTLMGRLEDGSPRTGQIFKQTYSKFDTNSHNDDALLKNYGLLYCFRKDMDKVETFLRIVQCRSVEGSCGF

[7] = molecular target: NH6-DEVD-hGH expressed from pAPT-Y-NH6-DEVD-hGH-Lacuv5-rev-CASP3
Chain of NH6-DEVD-hGH expressed from pAPT-Y-NH6-DEVD-hGH-Lacuv5-rev-CASP3 (chain, as listed by the source): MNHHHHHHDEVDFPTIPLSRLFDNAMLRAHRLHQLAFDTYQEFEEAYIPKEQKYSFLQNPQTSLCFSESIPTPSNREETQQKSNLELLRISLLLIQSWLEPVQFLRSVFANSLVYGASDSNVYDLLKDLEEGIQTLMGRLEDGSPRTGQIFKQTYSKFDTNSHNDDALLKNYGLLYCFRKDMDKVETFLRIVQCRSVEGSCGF

Chain of DH6-DEVD-hGH expressed from pAPT-Y-DH6-DEVD-hGH-Lacuv5-rev-CASP3 (chain, as listed by the source): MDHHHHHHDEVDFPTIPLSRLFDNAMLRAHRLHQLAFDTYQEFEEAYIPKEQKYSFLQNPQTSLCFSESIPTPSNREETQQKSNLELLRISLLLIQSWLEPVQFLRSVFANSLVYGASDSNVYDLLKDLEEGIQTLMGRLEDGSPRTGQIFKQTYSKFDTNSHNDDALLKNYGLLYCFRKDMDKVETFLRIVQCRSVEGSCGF
Chain of HAK-DEVD-hGH expressed from pAPT-Y-HAK-DEVD-hGH-Lacuv5-rev-CASP3 (chain, as listed by the source): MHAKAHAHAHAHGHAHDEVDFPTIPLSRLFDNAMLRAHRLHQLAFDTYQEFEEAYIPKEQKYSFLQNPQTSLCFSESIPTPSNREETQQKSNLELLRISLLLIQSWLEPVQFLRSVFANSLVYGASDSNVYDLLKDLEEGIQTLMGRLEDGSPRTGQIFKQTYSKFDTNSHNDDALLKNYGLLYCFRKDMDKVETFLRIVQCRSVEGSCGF
Chain of AH6-DEVD-hGH expressed from pAPT-Y-AH6-DEVD-hGH-Lacuv5-rev-CASP3 (chain, as listed by the source): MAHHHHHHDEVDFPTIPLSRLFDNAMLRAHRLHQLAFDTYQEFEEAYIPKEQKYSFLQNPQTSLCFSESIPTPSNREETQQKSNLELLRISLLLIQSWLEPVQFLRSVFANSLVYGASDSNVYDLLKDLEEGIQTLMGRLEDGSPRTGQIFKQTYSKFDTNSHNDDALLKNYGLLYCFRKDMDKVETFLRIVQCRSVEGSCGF
Chain of H6-DEVD-hGH expressed from pAPT-Y-H6-DEVD-hGH-Lacuv5-rev-CASP3 (chain, as listed by the source): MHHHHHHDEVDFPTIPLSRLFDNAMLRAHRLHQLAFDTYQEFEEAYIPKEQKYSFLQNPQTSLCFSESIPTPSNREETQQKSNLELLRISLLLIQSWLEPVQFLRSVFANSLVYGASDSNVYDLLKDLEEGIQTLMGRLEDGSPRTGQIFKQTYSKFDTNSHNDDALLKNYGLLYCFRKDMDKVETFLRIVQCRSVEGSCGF
Chain of H6-DEVD-hGH expressed from pETDuet-H6-DEVD-hGH-T7-rev-CASP3 (chain, as listed by the source): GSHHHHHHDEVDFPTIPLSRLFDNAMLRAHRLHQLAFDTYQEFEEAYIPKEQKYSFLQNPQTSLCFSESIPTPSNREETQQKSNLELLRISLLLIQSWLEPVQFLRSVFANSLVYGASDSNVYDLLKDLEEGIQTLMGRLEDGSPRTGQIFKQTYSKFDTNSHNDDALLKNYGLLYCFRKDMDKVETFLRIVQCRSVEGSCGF

B1: reverse caspase-3 (protein)
chain: MIETDSGVDDDMACHKIPVEADFLYAYSTAPGYYSWRNSKDGSWFIQSLCAMLKQYADKLEFMHILTRVNRKVATEFESFSFDATFHAKKQIPCIVSMLTKELYFYHDEVDGENTENSVDSKSIKNLEPKIIHGSESMDSGISLDNSYKMDYPEMGLCIIINNKNFHKSTGMTSRSGTDVDAANLRETFRNLKYEVRNKNDLTREEIVELMRDVSKEDHSKRSSFVCVLLSHGEEGIIFGTNGPVDLKKITNFFRGDRCRSLTGKPKLFIIQACRGTELDCGIETD
[1]
  cleavage of synthetic tag (Western blot, co-expression in E. coli): 99.30% or more of the synthetic tag was cleaved
[2]
  cleavage of synthetic tag (Western blot, co-expression in E. coli): 99.30% or more of the synthetic tag was cleaved
[3]
  cleavage of synthetic tag (Western blot, co-expression in E. coli): 99.30% or more of the synthetic tag was cleaved
[4]
  cleavage of N-terminal methionine and synthetic tag (Western blot, co-expression in E. coli): 96.12% of the N-terminal methionine of the growth hormone protein and the synthetic tag was cleaved
[5]
  cleavage of synthetic tag (Western blot, co-expression in E. coli): 99.30% or more of the synthetic tag was cleaved
[6]
  cleavage of synthetic tag (Western blot, co-expression in E. coli): 99.30% or more of the synthetic tag was cleaved
[7]
  cleavage of synthetic tag (Western blot, co-expression in E. coli): 99.30% or more of the synthetic tag was cleaved
